Assay results from the supplement of paper PMC10567573.

B1: C8orf76 (parent)
chain: KLAEAYLNLGPALSAALASSQKQH
B2: BTBD10 (parent)
chain: FVYENAKEGARNIRTSERVTLIVD

Variants of: B1
Assay: protein stability index of a GFP-peptide fusion (GPS, HEK-293T) (PSI 1-6); higher = more stable
Conditions: c terminus: a fixed tail appended
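Note: lentivirally expressed fusions sorted by FACS into six bins by GFP to DsRed ratio, PSI derived from sequencing read proportions per bin multiplied by bin number.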

Protein stability index: each site, then its substitutions
S19: K 2.51 | I 3.22 | W 2.57 | H 3.15 | G 3.14 | A 4.1 | T 3.75 | R 2.74 | Y 2.84 | F 2.5 | M 3.29 | C 2.07 | D 1.89 | P 2.08 | V 2.64 | E 2.95 | Q 2.43 | N 3 | L 2.35
K22: T 4.43 | Y 3.64 | R 4.21 | Q 2.76 | P 4.17 | G 3.43 | S 3.07 | F 2.69 | W 4.77 | I 3.1 | E 4.71 | A 2.91 | H 2.52 | D 1.69 | L 3.34 | C 3.44 | M 2.41 | N 1.83
S20: C 3.5 | H 3.47 | N 2.26 | K 1.6 | E 1.3 | D 1.48 | A 3.74 | R 2.13 | I 4.43 | V 3.17 | T 1.9 | L 3.21 | P 2.23 | W 3.33 | G 2.46 | M 2.44 | Y 2.2
L17: H 2.17 | S 2.03 | K 1.81 | I 2.16 | P 2.76 | Q 2.17 | Y 1.97 | N 2.56 | D 2.94 | M 2.69 | G 1.95 | V 1.59 | T 1.95 | F 2.21 | R 2.45 | C 1.6 | A 1.65 | E 2.26
A18: K 2.02 | H 2.73 | S 1.99 | N 1.19 | I 2.4 | C 1.6 | P 2.04 | G 2.29 | Q 1.9 | M 3.46 | V 2.36 | T 1.52 | Y 2.37 | E 1.95 | L 3.18 | R 2.67 | D 2.22 | F 3
A15: W 2.71 | Y 2.09 | S 1.54 | V 2.31 | T 2.15
H24: N 2.29 | W 1.9 | L 2.44 | V 3.61 | K 1.76 | D 1.67 | F 3.48 | M 3.02 | R 3 | Q 3.32 | I 2.4 | A 4.29 | T 2.79 | E 1.47 | P 2.62 | C 3.67 | S 2.83 | Y 2.56
Q23: F 2.92 | W 2.43 | V 2.9 | L 2.86 | K 2.07 | D 1.97 | R 2.04 | H 2.74 | E 3.74 | A 3.15 | Y 2.51 | N 1.99 | T 2.83 | S 2.91 | C 2.22 | M 2.85 | P 2.57 | I 2.73
A16: F 3.07 | Y 2.95 | P 2.39 | D 2.18 | E 1.82 | G 2.4 | L 3.68 | H 2.86 | K 1.97 | N 1.95 | S 2.41 | Q 2.38 | I 4.08 | V 2.05 | R 2.43 | T 2.12 | W 1.09
Q21: Y 4.14 | E 1.78 | P 2.18 | K 2.1 | R 3.07 | I 2.71 | G 3.38 | V 2.99 | H 2.42 | N 3.31 | S 2.38 | F 2.97 | D 1.97 | L 1.8 | W 2.31 | A 4.28 | M 3.44 | T 3.01

Variants of: B2
Assay: as above
Conditions: c terminus: a fixed tail appended

Protein stability index of substitutions, site by site:
R11: E 3.09 | H 2.16 | V 2.3 | Y 1.59 | Q 2.16 | P 1.84
I13: P 2.21 | R 2.4 | M 1.64 | V 2.06 | T 2.4 | E 2.34 | C 1.8
V23: Q 2.47 | R 2.68 | C 2.15
R14: D 2.33 | Y 2.85 | N 2.32 | M 2.04 | F 2.38 | G 1.99 | A 2.17 | V 2.05 | E 2.18
N5: C 2.42 | Y 1.61 | H 2.19 | G 2.47 | M 1.61 | W 3.23 | T 2.25
A10: Y 1.86 | L 1.89 | G 2.08 | R 2.2 | C 1.84 | T 2.03 | M 1.62
F1: D 3.29 | L 3.05 | V 3.7 | A 3.21 | P 3.46 | T 3.06 | M 3.78 | N 3.75 | S 3.23
N12: T 1.93 | G 1.98 | C 1.51 | H 1.5 | V 1.17 | P 2.65 | E 2.08 | M 1.56 | K 2.19
V2: Y 2.45 | R 3.04 | D 3.56 | F 2.31 | E 3.83 | N 3.58 | T 3.08 | A 2.78
S16: M 2.28 | W 2.1 | L 1.39 | N 2.64 | E 2.57 | P 2.33
E8: T 2.11 | W 2.04 | Y 1.94 | C 2.11 | A 1.52 | H 2.25 | G 1.86 | D 2.28 | V 1.47
R18: T 1.98 | F 2.16 | D 2.61 | L 1.83 | N 2.07 | E 2.29 | P 2.31 | Q 1.79 | C 1.83
K7: R 1.86 | E 2.74 | P 2.4 | W 1.63 | N 2.54 | C 2.32 | D 2.58 | Q 2.19
T15: I 1.68 | P 1.81 | Q 2.68 | R 2.06 | E 2.48 | K 2.25
V19: A 2.45 | E 2.86 | T 2.39 | F 2.27 | W 1.53 | G 2.21 | N 2.43 | C 2.49
G9: D 2.49 | R 2.17 | N 2.15 | E 2.33 | K 1.7
E4: Q 1.94 | A 1.82 | K 2.25 | D 2.08 | G 1.75 | Y 1.92 | F 1.65 | C 2.56
D24: Q 2.03 | C 1.91 | W 3.12 | M 1.95 | N 1.95 | S 1.18
A6: D 2.67 | Q 1.96 | W 2.05 | H 2.1 | P 2.41 | L 1.69
T20: L 1.48 | G 1.59 | A 1.73 | K 2.07 | Y 1.81 | V 1.38 | I 1.84 | D 1.92
L21: Y 1.89 | P 2.03 | Q 2.83 | W 2.56 | R 2.14 | I 1.57 | H 2.11
E17: K 2.18 | I 2.25 | V 3.52 | D 1.74 | C 3.19
I22: P 2.89 | Q 2.31 | R 2.24 | D 2.96 | K 2.34 | S 2.67
Y3: W 2.19 | S 1.96 | G 2.35 | C 2.17 | L 1.92 | H 2.11
